Reference: US20140050743A1, “BINDING PROTEINS TO INHIBITORS OF COAGULATION FACTORS” (BAYER INTELLECTUAL PROPERTY GMBH, priority 2011, published 2014)
Positions count from the first letter of the chain named.

Test: ELISA-based activity assay of antibody variants without a competition step
Type: binding
Set-up: key: +++: Variants with an average ratio above reference plus 2×SD; +/−: variants with a ratio below reference minus 2×SD; ++: All variants with a performance in between both thresholds; −: Variants with a ratio below 0.5
Details: Table 10, multiple substitutions within M14-G07, variant to reference ratio (reference 2-fold improved over wt)
Description: To determine the activity of the mutated antibody variants on compound from Example 1K an equilibrium or dissociation limited ELISA assay format was used. Briefly, MTP plates (Nunc Maxisorp black, 460518) were coated with 4 μg/ml streptavidin (Calbiochem, 189730) diluted in coating buffer (Candor Bioscience GmbH, 121500) and incubated over night at 4° C. After washing with PBST, plates were blocked with 100% Smart Block (Candor Bioscience GmbH, 113500) in PBST for 1 h at room temperature and the washing step was repeated. Plates were incubated with compound from Example 1K at varying concentrations (0.3-200 nM) for 1 h at 37° C., washed with PBST and antibody fragments were immobilized by adding 25 μl of the crude bacterial cultures for 1 h at room temperature. After washing with PBST a competition step or the immediate detection was performed. […] For the detection of the residually bound Fabs a HRP-coupled anti-lambda antibody (Sigma, A5175) diluted in 10% Smart Block in PBST was added for 1 h at room temperature. After washing 10 μM Amplex Red (Invitrogen, A12222) were added and incubated for 10 to 30 min at room temperature followed by measurement of the fluorescence signal.
Provided in Table 9 are several examples of single and/or double amino acid substitutions introduced into the heavy and/or the light chain of M14-G07 (wt). Performance of the variants was analyzed in quadruples in the ELISA without a competition step and the FXa deinhibition assay (FXa DIA). In the ELISA, averages were calculated and normalized to the respective average expression level. Overall performance of variants was evaluated by comparing the variant to wt ratio from 2-3 independent experiments. Variants with an average ratio above wt plus 2×SD (standard deviation of the ratio) were considered as improved and are marked with “++”, whereas variants with a ratio below wt minus 2×SD were considered as reduced in their binding affinity and are marked with “−”. All variants with a performance in between both thresholds are marked with “+/−”. Variants with average fluorescence counts below the negative control (non-expressing cells) plus 3×SD were considered as non-binding and marked with “−−” with none of the variants fulfilling this criteria. In the FXa deinhibition assay averages were calculated and overall performance of variants was evaluated by comparing the variant to wt ratio from 2-3 independent experiments. Variants with an average ratio above wt plus 2×SD were considered as improved and are marked with “++”, whereas variants with a ratio below wt minus 2×SD were considered as either reduced in their binding affinity or non-binding and are marked with “−−”. All variants with a performance in between both thresholds are marked with “+/−”. Variants not analyzed are marked with “nd” (not determined). CDRs were defined according to Kabat.
Provided in Table 10 are examples of combined amino acid substitutions within M14-G07 antibodies. While not every combination is provided in Table 10, it is contemplated that the anti-rivaroxaban antibody may comprise any combination of modifications provided. Variant performance was analyzed in quadruples in the ELISA without a competition step. Averages were calculated, average background signals determined on a streptavidin coated plate without compound from Example 1K were subtracted if the compound from Example 1K concentration used for coating was below 10 nM and signals were normalized to the respective average expression level. Overall performance of variants was evaluated by comparing the variant to reference ratio from 2-3 independent experiments using a 2-fold improved reference variant as compared to wt. Variants with an average ratio above reference plus 2×SD are marked with “+++”, whereas variants with a ratio below reference minus 2×SD are marked with “+/−”. All variants with a performance in between both thresholds are marked with “++”. […]

B1: M14-G07-3: antibody, Vh SEQ ID NO: 131, Vl SEQ ID NO: 132 (antibody, listed as Homo Sapiens, V domains shown)
VH: EVQLLESGGGLVQPGGSLRLSCAASGFTFSSYAMSWVRQAPGKGLEWVSGISGSGGSTYYADSVKGRFTISRDNSKNTLYLQMNSLRAEDTAVYYCARQGRTSFYLDVWGQGTLVTVSS
VL: QSVLTQPPSASGTPGQRVTISCSGSSRNIGSYYVYWYQQLPGTAPKLLIYDNRQRPSGVPDRFSGSKSGTSASLAISGLRSEDEADYYCVAWDDSWSGTWVFGGGTKLTVL
ELISA: +++

B2: M14-G07-9: antibody, Vh SEQ ID NO: 143, Vl SEQ ID NO: 144 (antibody, listed as Homo Sapiens, V domains shown)
VH: B1 VH with T28R, S49G
VL: B1 VL with Y32F, R53N, D94V, W96L, T99H
ELISA: +++

B3: M14-G07-7: antibody, Vh SEQ ID NO: 139, Vl SEQ ID NO: 140 (antibody, listed as Homo Sapiens, V domains shown)
VH: B1 VH with T28R, S49G
VL: B1 VL with R53N, T99H
ELISA: +++

B4: M14-G07-18: antibody, Vh SEQ ID NO: 161, Vl SEQ ID NO: 162 (antibody, listed as Homo Sapiens, V domains shown)
VH: B1 VH with T28R, S49G
VL: B1 VL with R53N
ELISA: +++

B5: M14-G07-19: antibody, Vh SEQ ID NO: 163, Vl SEQ ID NO: 164 (antibody, listed as Homo Sapiens, V domains shown)
VH: B1 VH
VL: B1 VL with Y32F, W96L, T99H
ELISA: +++

B6: M14-G07-23: antibody, Vh SEQ ID NO: 171, Vl SEQ ID NO: 172 (antibody, listed as Homo Sapiens, V domains shown)
VH: B1 VH with T28R, S49G
VL: B1 VL with S31A, Y32F, R53N, W96L
ELISA: +++

B7: M14-G07-14: antibody, Vh SEQ ID NO: 153, Vl SEQ ID NO: 154 (antibody, listed as Homo Sapiens, V domains shown)
VH: B1 VH with S49G
VL: B1 VL with W96Y
ELISA: +++

B8: M14-G07-11: antibody, Vh SEQ ID NO: 147, Vl SEQ ID NO: 148 (antibody, listed as Homo Sapiens, V domains shown)
VH: B1 VH with T28R, S49G
VL: B1 VL with S31A, Y32F, T99H
ELISA: +++

B9: M14-G07-25: antibody, Vh SEQ ID NO: 175, Vl SEQ ID NO: 176 (antibody, listed as Homo Sapiens, V domains shown)
VH: B1 VH with T28R, S49G
VL: B1 VL with R27S, S31A, R53N, W96Y
ELISA: +++

B10: M14-G07-12: antibody, Vh SEQ ID NO: 149, Vl SEQ ID NO: 150 (antibody, listed as Homo Sapiens, V domains shown)
VH: B1 VH
VL: B1 VL with R53N
ELISA: +++

B11: M14-G07-15: antibody, Vh SEQ ID NO: 155, Vl SEQ ID NO: 156 (antibody, listed as Homo Sapiens, V domains shown)
VH: B1 VH with S49G
VL: B1 VL with R27S, R53N, T99H
ELISA: +++

B12: M14-G07-4: antibody, Vh SEQ ID NO: 133, Vl SEQ ID NO: 134 (antibody, listed as Homo Sapiens, V domains shown)
VH: B1 VH with T28R, S49G
VL: B1 VL with S31A, W96Y
ELISA: +++

B13: M14-G07-10: antibody, Vh SEQ ID NO: 145, Vl SEQ ID NO: 146 (antibody, listed as Homo Sapiens, V domains shown)
VH: B1 VH with S49G
VL: B1 VL with Y32F, R53N, T99H
ELISA: +++

B14: M14-G07-22: antibody, Vh SEQ ID NO: 169, Vl SEQ ID NO: 170 (antibody, listed as Homo Sapiens, V domains shown)
VH: B1 VH with S49G
VL: B1 VL with R27S, S31A, R53N
ELISA: +++

B15: M14-G07-5: antibody, Vh SEQ ID NO: 135, Vl SEQ ID NO: 136 (antibody, listed as Homo Sapiens, V domains shown)
VH: B1 VH with T28R
VL: B1 VL with W96Y
ELISA: +++

B16: M14-G07-26: antibody, Vh SEQ ID NO: 177, Vl SEQ ID NO: 178 (antibody, listed as Homo Sapiens, V domains shown)
VH: B1 VH with S49G, R101K
VL: B1 VL with R27S, Y32F, R53N, W96Y
ELISA: +++

B17: M14-G07-16: antibody, Vh SEQ ID NO: 157, Vl SEQ ID NO: 158 (antibody, listed as Homo Sapiens, V domains shown)
VH: B1 VH with T28R, S49G
VL: B1 VL with Y32F, W96Y
ELISA: +++

B18: M14-G07-27: antibody, Vh SEQ ID NO: 179, Vl SEQ ID NO: 180 (antibody, listed as Homo Sapiens, V domains shown)
VH: B1 VH with S49G
VL: B1 VL with R27S, S31A, R53N, W96Y, T99H
ELISA: +++

B19: M14-G07-8: antibody, Vh SEQ ID NO: 141, Vl SEQ ID NO: 142 (antibody, listed as Homo Sapiens, V domains shown)
VH: B1 VH with S49G
VL: B1 VL with S31A, Y32F, W96Y
ELISA: +++

B20: M14-G07-24: antibody, Vh SEQ ID NO: 173, Vl SEQ ID NO: 174 (antibody, listed as Homo Sapiens, V domains shown)
VH: B1 VH
VL: B1 VL with R53N, W96L
ELISA: +++

B21: M14-G07-17: antibody, Vh SEQ ID NO: 159, Vl SEQ ID NO: 160 (antibody, listed as Homo Sapiens, V domains shown)
VH: B1 VH with S49G
VL: B1 VL with S31A, Y32F
ELISA: +++

B22: M14-G07-6: antibody, Vh SEQ ID NO: 137, Vl SEQ ID NO: 138 (antibody, listed as Homo Sapiens, V domains shown)
VH: B1 VH with T28R, V37I, S49G
VL: B1 VL with W96Y
ELISA: +++

B23: M14-G07-13: antibody, Vh SEQ ID NO: 151, Vl SEQ ID NO: 152 (antibody, listed as Homo Sapiens, V domains shown)
VH: B1 VH with S49G
VL: B1 VL with Y32F
ELISA: +++

B24: M14-G07-20: antibody, Vh SEQ ID NO: 165, Vl SEQ ID NO: 166 (antibody, listed as Homo Sapiens, V domains shown)
VH: B1 VH with T28R, S49G
VL: B1 VL with R27S, S31A, R53N, W96L
ELISA: +++

B25: M14-G07-21: antibody, Vh SEQ ID NO: 167, Vl SEQ ID NO: 168 (antibody, listed as Homo Sapiens, V domains shown)
VH: B1 VH with T28R, S49G, R101E
VL: B1 VL with R27S, Q38H, R53N
ELISA: +++
